Measurements published in patent publication US20250074988A1.

Molecular target: recombinant human PD-L1 protein (Item No. 10084-H08H, Sino Biological) (human) (UniProt Q9NZQ7)
Assay: SPR, Biacore 8K, antibody captured on anti-human chip, huPD-L1 analyte, 1:1 model

Sequence of recombinant human PD-L1 protein (Item No. 10084-H08H, Sino Biological) (human) (Q9NZQ7 19-238 limits assumed): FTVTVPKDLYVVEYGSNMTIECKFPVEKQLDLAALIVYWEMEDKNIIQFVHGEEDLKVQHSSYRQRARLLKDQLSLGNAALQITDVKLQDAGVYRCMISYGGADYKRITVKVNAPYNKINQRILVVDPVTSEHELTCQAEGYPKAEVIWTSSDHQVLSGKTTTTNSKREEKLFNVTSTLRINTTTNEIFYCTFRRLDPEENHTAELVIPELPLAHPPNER

Kd: 0.359 nM
koff: 0.00203 s⁻¹
kon: 5.65e+06 M⁻¹ s⁻¹
Substance: MDX 1105 (antibody)
